US20200339692A1 (JIANGSU HENGRUI MEDICINE, published 2020)
Where a chain is given by its changes, count along the chain named. Names and notes keep the numbering of the source. Like-named read-outs stand apart in the source and are kept apart here. Values belong to the binder of their own block, whether it stands above or below them.

Legend:
[1] = target: T1, human PD-L1 (ligand blocking test) (human, UniProt Q9NZQ7 19-238, limits assumed); assay: blocking of human PD-L1/PD-1 binding, PD-L1 10 ug/ml; competitor PD-1
[2] = target: T2, human PD-L1 (Cat. #10084-H08H, Sino Biological) (human, UniProt Q9NZQ7 19-239); assay: SPR, Biacore X100, 1:1 Langmuir
T2 construct: Bought recombinant protein used in the Biacore test; also called hPDL1; hPD-L1
Experimental: (§1) According to the method in the manual of human anti-capture kit (Cat. A BR-1008-39, GE), the human anti-capture antibody was covalently coupled to biosensor chip CM5 (Cat. #BR-1000-12, GE) so that a certain amount of human PD-L1 (Cat. #10084-H08H, Sino Biological) monkey PD-L1 (Cat. #90251-C08H, Sino Biological), mouse PD-L1 (Cat. #50010-M08H, Sino Biological) were affinity captured. The affinity of PD-L1 antibody reacting with PD-L1 was measured with Biacore X100, GE instrument.

[3] = target: T3, monkey PD-L1 (Cat. #90251-C08H, Sino Biological) (monkey (cyno), UniProt G7PSE7 19-239); assay: SPR, Biacore X100, 1:1 Langmuir
T3 construct: Bought recombinant protein used in the Biacore test; also called Monkey (cyno) PD-L1; Cyno PDL1
Experimental: as §1

[4] = target: T1, human PD-L1 (ligand blocking test); assay: blocking of B7-1 binding to human PD-L1, PD-L1 1 ug/ml; competitor B7-1
[5] = target: T4, mouse PD-L1 (Cat. #50010-M08H, Sino Biological) (mouse, UniProt Q9EP73 19-238); assay: SPR, Biacore X100
T4 construct: Bought recombinant protein used in the Biacore test
Experimental: as §1

[6] = target: T2, human PD-L1 (Cat. #10084-H08H, Sino …); assay: SPR, Biacore X100, 1:1 Langmuir; remark: listed apart in the source
Experimental: as §1

[7] = target: T3, monkey PD-L1 (Cat. #90251-C08H, Sino …); assay: SPR, Biacore X100, 1:1 Langmuir; remark: listed apart in the source
Experimental: as §1

[8] = target: mouse PD-L1 (ligand blocking test) (mouse, UniProt Q9EP73 19-238, limits assumed); assay: blocking of mouse PD-L1/PD-1 binding, PD-L1 5 ug/ml; competitor PD-1
[9] = target: T4, mouse PD-L1 (Cat. #50010-M08H, Sino …); assay: SPR, Biacore X100, 1:1 Langmuir
Experimental: as §1

[10] = target: T2, human PD-L1 (Cat. #10084-H08H, Sino …); assay: SPR, Biacore X100
Experimental: as §1

[11] = target: T3, monkey PD-L1 (Cat. #90251-C08H, Sino …); assay: SPR, Biacore X100
Experimental: as §1

T3 sequence (G7PSE7 entry or part of it C08H C08H): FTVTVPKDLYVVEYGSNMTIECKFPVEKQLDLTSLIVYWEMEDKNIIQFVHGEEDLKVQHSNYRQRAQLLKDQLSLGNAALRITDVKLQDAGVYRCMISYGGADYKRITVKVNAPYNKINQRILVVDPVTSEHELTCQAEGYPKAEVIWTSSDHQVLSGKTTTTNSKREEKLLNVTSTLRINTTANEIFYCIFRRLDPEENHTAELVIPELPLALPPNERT
T4 sequence (Q9EP73 19-238 limits assumed, stated change not applied): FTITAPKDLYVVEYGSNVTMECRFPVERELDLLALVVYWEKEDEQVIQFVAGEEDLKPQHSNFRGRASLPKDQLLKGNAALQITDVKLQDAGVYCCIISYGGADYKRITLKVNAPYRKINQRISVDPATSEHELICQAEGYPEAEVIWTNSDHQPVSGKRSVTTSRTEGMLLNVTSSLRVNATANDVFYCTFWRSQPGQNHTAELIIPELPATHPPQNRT
T1 sequence (Q9NZQ7 19-238 limits assumed): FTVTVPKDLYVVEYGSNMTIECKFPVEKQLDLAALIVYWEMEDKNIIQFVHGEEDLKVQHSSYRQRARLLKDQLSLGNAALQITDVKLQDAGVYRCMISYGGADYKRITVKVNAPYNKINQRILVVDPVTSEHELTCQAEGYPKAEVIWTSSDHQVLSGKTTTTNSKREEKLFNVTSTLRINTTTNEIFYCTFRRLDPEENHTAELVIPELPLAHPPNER
T2 sequence (Q9NZQ7 19-239 limits assumed): as the sequence (G7PSE7 entry or part of it C08H C08H) above, with T33A, S34A, N62S, Q68R, R82Q, L173F, A185T, I192T, L215H counted along it
Chain of mouse PD-L1 (ligand blocking test) (Q9EP73 19-238 limits assumed): as the sequence (Q9EP73 19-238 limits assumed, stated change not applied) above

B2: H6L11 (antibody, human IgG1, kappa, V domains shown)
VH: QVQLQESGPGLVKPSQTLSLTCTVSGGSISNDYWTWIRQHPGKGLEYIGFISRAGSTYNTPSLKGRVTISRDTSKNQFSLKLSSVTAADTAVYYCARSGGWLAPFDYWGRGTLVTVSS
VL: DIVMTQSPDSLAVSLGERATINCKSSQSLFYHSNQKHSLAWYQQKPGQPPKLLIYGASTRESGVPDRFSGSGSGTDFTLTISSLQAEDVAVYYCQQYYGYPYTFGGGTKVEIKR
notes: also called 9-2 H6 and 9-2 L11
IC50 [1]: 0.29 ng/mL
IC50 [4]: 1.69 ng/mL
IC50 [8]: 1.23 ng/mL
Kd [6]: 227 pM
koff [6]: 0.000113 s⁻¹
kon [6]: 495000 M⁻¹ s⁻¹
Kd [9]: 18100 pM
koff [9]: 0.0119 s⁻¹
kon [9]: 655000 M⁻¹ s⁻¹
Kd [7]: 318 pM
koff [7]: 0.000151 s⁻¹
kon [7]: 474000 M⁻¹ s⁻¹

B3: H5L11 (antibody, human IgG1, kappa, V domains shown)
VH: QVQLQESGPGLVKPSQTLSLTCTVSGGSISDGSAYWSWIRQHPGKGLEYIGFISRAGSTYNTPSLKGRVTISRDTSKNQFSLKLSSVTAADTAVYYCARSGGWLAPFDYWGRGTLVTVSS
VL: B2 VL
notes: from the HRP00049 mutant library; also called 9-2 H5 and 9-2 L11
IC50 [1]: 0.168 ng/mL
IC50 [4]: 1.45 ng/mL
IC50 [8]: 0.927 ng/mL
Kd [6]: 203 pM
koff [6]: 0.000124 s⁻¹
kon [6]: 611000 M⁻¹ s⁻¹
Kd [9]: 69600 pM
koff [9]: 0.0564 s⁻¹
kon [9]: 811000 M⁻¹ s⁻¹
Kd [7]: 211 pM
koff [7]: 0.000121 s⁻¹
kon [7]: 572000 M⁻¹ s⁻¹

B5: H18L61 (antibody, human IgG1, kappa, V domains shown)
VH: QVQLVQSGAEVKKPGASVKVSCKASGYTFTSYWMHWVRQAPGQGLEWMGRISPSSGMAVYNEKFKNRVTMTRDTSTSTVYMELSSLRSEDTAVYYCARGGSSYDYFDYWGQGTTVTVSS
VL: DIVLTQSPASLAVSPGQRATITCRASESVSIHGTHLMHWYQQKPGQPPKLLIYAASNLESGVPARFSGSGSGTDFTLTINPVEAEDTANYYCQQSFEDPLTFGQGTKLEIKR
notes: also called 24D5 H18 and 24D5 L61
IC50 [1]: 0.228 ng/mL
IC50 [4]: 1.38 ng/mL
Kd [6]: 33 pM
koff [6]: 5.63e-05 s⁻¹
kon [6]: 1.71e+06 M⁻¹ s⁻¹
Kd [7]: 48 pM
koff [7]: 7.68e-05 s⁻¹
kon [7]: 1.6e+06 M⁻¹ s⁻¹

Other lines, results leading:

IC50 [1]: 0.242 ng/mL
Kd [2]: 110 pM
koff [2]: 0.000139 s⁻¹
kon [2]: 1.26e+06 M⁻¹ s⁻¹
Kd [3]: 114 pM
koff [3]: 0.000143 s⁻¹
kon [3]: 1.26e+06 M⁻¹ s⁻¹
IC50 [4]: 1.23 ng/mL
binding result [5]: no binding
Kd [6]: 67.2 pM
koff [6]: 0.000116 s⁻¹
kon [6]: 1.73e+06 M⁻¹ s⁻¹
Kd [7]: 62 pM
koff [7]: 9.38e-05 s⁻¹
kon [7]: 1.51e+06 M⁻¹ s⁻¹
B1: HRP00052: 24D5(GF)IgG4(AA)(S228P) (antibody)
heavy: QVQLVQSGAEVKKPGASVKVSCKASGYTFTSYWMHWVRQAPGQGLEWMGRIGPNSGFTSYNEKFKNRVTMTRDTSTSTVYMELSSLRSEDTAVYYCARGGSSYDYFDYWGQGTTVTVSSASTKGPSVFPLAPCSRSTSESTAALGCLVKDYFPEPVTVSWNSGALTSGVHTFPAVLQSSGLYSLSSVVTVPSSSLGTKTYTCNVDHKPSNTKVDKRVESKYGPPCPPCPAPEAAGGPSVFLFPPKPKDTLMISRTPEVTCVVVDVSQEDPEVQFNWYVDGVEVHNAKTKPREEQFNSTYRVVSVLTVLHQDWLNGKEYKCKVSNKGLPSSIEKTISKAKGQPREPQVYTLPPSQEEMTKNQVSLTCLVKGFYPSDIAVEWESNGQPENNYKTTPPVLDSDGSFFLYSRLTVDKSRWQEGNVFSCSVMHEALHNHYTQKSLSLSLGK
light: DIVLTQSPASLAVSPGQRATITCRASESVSIHGTHLMHWYQQKPGQPPKLLIYAASNLESGVPARFSGSGSGTDFTLTINPVEAEDTANYYCQQSFEDPLTFGQGTKLEIKRTVAAPSVFIFPPSDEQLKSGTASVVCLLNNFYPREAKVQWKVDNALQSGNSQESVTEQDSKDSTYSLSSTLTLSKADYEKHKVYACEVTHQGLSSPVTKSFNRGEC
notes: Parent antibody from WO2017084495A1

binding result [10]: no binding
binding result [11]: no binding
B4: H21L68 (antibody, human IgG1, kappa, V domains shown)
VH: B5 VH with S31D, Y32K, H35M, S52T, M57F, V59M
VL: B5 VL with A54V, L58V, E59W
notes: also called 24D5 H21 and 24D5 L68
